Each block holds one molecule with its values, some of them ahead of it.
How the values were obtained:
[1] = target: TRF2 (Telomeric Repeat-binding Factor 2), full length (human); assay: ITC
[2] = target: TRFH domain of TRF2 (TRF2 dimerization domain) (human); assay: ITC
[3] = target: TRF2 (Telomeric Repeat-binding Factor 2), full length (human); assay: SAXS
[4] = target: TRF2 (Telomeric Repeat-binding Factor 2), full length (human); assay: SEC-MALS + ITC
[5] = target: TRF2 (Telomeric Repeat-binding Factor 2), full length (human); assay: ITC; remark: listed apart in the source
RAP1 = target: T1, RAP1 (human, UniProt Q9NYB0 1-399); assay: ITC
T1 sequence: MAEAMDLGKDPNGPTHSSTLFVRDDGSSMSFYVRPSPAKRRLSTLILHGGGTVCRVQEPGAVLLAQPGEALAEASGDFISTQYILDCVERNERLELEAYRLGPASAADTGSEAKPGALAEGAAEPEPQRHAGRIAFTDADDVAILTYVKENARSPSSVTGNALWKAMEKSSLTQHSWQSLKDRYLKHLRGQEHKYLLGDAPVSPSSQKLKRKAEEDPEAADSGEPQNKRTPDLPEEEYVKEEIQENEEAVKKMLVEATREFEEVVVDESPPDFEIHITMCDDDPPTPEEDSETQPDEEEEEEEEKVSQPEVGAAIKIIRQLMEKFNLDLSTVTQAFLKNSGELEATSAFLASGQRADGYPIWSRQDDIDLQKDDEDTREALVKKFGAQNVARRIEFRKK

Molecule: TRF2 (Telomeric Repeat-binding Factor 2), full length (natural protein)
stoichiometry N [3]: 2
stoichiometry N [4]: 2

B2: T2-S1-S2 (T2AG3 duplex) (dsDNA)
DNA 1: CTAGGGTTAGGGTTAG
DNA 2: CTAACCCTAACCCTAG
binding result (RAP1): no binding

Results, then the molecule that gave them:

Kd [1]: 46 nM
Kd [2]: 59 nM
Molecule: Apollo-YLP peptide (Apollo residues 494-511)

KD of the high affinity site (two-independent sites model) [5]: < 1 nM
KD of the lower affinity site (two-independent sites model) [5]: 500 nM
B1: RAP1 (Repressor Activator Protein 1), full length (natural protein)
chain: T1 sequence
